Assay results from US7199218B1, “ICBP90 polypeptide and its fragments and polynucleotides coding for said polypeptides and applications for diagnosing and treating cancer” (Institut National de la Sante et de la Recherche Medicale …, priority 1999, dated 2007).

Experiments:
[1] = molecular target: T1, TIP60 (Tat Interactive Protein, 60 kDa) (Homo sapiens, UniProt Q92993); assay: Double-hybrid technique, protein-protein interaction; format: binding
T1 construct: expressed in transfected cells; own knowledge
From the text: The TIP60 protein has very recently been described as being a coactivator of the nuclear receptor, especially the receptor for the androgens (Brady M E et al., 1999).

[2] = test system: ICB DNA sequence (ICB1/ICB2 boxes of the human topoisomerase IIα promoter); assay: Gel retardation (acrylamide gel) binding of protein to 32P-labelled ICB oligonucleotides; settings: 1 μg protein, 1 ng 32P-labelled oligonucleotide, competition with non-labelled oligonucleotides
Protocol: To test the ability of the 59 kDa protein to bind specifically to the ICB1 and/or ICB2 boxes, three tandem copies of ICB2 (ICB2X3, sequences described above) were labelled at the terminal end with 32 P phosphore using the T4 polynucleotide kinase (New England Biolabs) and […] (160 mCi/mmol, ICN Irvine, Calif., USA). To examine the specificity of the binding, oligonucleotides containing only one copy of the CCAAT box were synthesized:
The ICBP-59 protein (1 μg) was incubated with 1 ng of oligonucleotide and labelled at its terminal end by phosphorous ^32P in 12% glycerol, 12 mM HEPES-NaOH (pH 7.9), 60 mM KCl, 4 mM Tris-HCl (pH 7.9), 100 ng BSA, 0.6 mM DTT, and 100 ng poly(dI/dC) in 20 μl (Inouye et al., 1994). After a 30-minutes incubation at room temperature, the reaction mix was loaded in 6% polyacrylamide gels. In competition experiments, the quantity indicated of non-labelled oligonucleotides were added to the reaction mix 10 minutes before the addition of proteins. To examine the binding properties of ICBP90 with regard to the ICB2 box, we used the same protocol except that labelled oligonucleotide contained only one copy of the CCAAT sequence as described below:
Binding specificity was studied using a non-labelled nucleotide containing a GC box of the human topoisomerase IIa promoter: […]

T1 sequence (Q92993 whole entry, species assumed): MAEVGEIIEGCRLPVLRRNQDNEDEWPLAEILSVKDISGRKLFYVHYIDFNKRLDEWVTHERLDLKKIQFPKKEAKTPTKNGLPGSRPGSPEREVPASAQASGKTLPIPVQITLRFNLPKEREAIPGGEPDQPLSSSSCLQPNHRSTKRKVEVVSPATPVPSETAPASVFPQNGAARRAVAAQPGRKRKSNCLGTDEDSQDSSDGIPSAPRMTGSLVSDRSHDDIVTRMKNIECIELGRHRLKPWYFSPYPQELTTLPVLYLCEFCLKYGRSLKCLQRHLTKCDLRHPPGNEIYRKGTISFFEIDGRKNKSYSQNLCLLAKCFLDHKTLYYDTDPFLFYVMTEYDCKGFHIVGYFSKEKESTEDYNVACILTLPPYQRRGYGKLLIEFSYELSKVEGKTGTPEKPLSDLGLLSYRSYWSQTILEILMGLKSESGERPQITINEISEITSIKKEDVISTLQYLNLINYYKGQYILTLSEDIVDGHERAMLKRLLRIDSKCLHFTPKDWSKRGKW

interaction with TIP60 [1]	Molecule	ability to bind specifically an ICB DNA sequence [2]
existence of interactions	ICBP90: Inverted CCAAT Box Binding Protein of 90 kDa, 793 amino acids, SEQ ID No.2 (protein, listed as Homo sapiens) MWIQVRTMDGRQTHTVDSLSRLTKVEELRRKIQELFHVEPGLQRLFYRGKQMEDGHTLFDYEVRLNDTIQLLVRQSLVLPHSTKERDSELSDTDSGCCLGQSESDKSSTHGEAAAETDSRPADEDMWDETELGLYKVNEYVDARDTNMGAWFEAQVVRVTRKAPSRDEPCSSTSRPALEEDVIYHVKYDDYPENGVVQMNSRDVRARARTIIKWQDLEVGQVVMLNYNPDNPKERGFWYDAEISRKRETRTARELYANVVLGDDSLNDCRIIFVDEVFKIERPGEGSPMVDNPMRRKSGPSCKHCKDDVNRLCRVCACHLCGGRQDPDKQLMCDECDMAFHIYCLDPPLSSVPSEDEWYCPECRNDASEVVLAGERLRESKKNAKMASATSSSQRDWGKGMACVGRTKECTIVPSNHYGPIPGIPVGTMWRFRVQVSESGVHRPHVAGIHGRSNDGSYSLVLAGGYEDDVDHGNFFTYTGSGGRDLSGNKRTAEQSCDQKLTNTNRALALNCFAPINDQEGAEAKDWRSGKPVRVVRNVKGGKNSKYAPAEGNRYDGIYKVVKYWPEKGKSGFLVWRYLLRRDDDEPGPWTKEGKDRIKKLGLTMQYPEGYLEALANREREKENSKREEEEQQEGGFASPRTGKGKWKRKSAGGGPSRAGSPRRTSKKTKVEPYSLTAQQSSLIREDKSNAKLWNEVLASLKDRPASGSPFQLFLSKVEETFQCICCQELVFRPITTVCQHNVCKDCLDRSFRAQVFSCPACRYDLGRSYAMQVNQPLQTVLNQLFPGYGNGR	identical from top to bottom to that observed for ICBP-59
–	ICBP-59: 59 kDa C-terminal fragment, amino acids 263 to 793 of SEQ ID NO. 2 (protein, listed as Homo sapiens) DDSLNDCRIIFVDEVFKIERPGEGSPMVDNPMRRKSGPSCKHCKDDVNRLCRVCACHLCGGRQDPDKQLMCDECDMAFHIYCLDPPLSSVPSEDEWYCPECRNDASEVVLAGERLRESKKNAKMASATSSSQRDWGKGMACVGRTKECTIVPSNHYGPIPGIPVGTMWRFRVQVSESGVHRPHVAGIHGRSNDGSYSLVLAGGYEDDVDHGNFFTYTGSGGRDLSGNKRTAEQSCDQKLTNTNRALALNCFAPINDQEGAEAKDWRSGKPVRVVRNVKGGKNSKYAPAEGNRYDGIYKVVKYWPEKGKSGFLVWRYLLRRDDDEPGPWTKEGKDRIKKLGLTMQYPEGYLEALANREREKENSKREEEEQQEGGFASPRTGKGKWKRKSAGGGPSRAGSPRRTSKKTKVEPYSLTAQQSSLIREDKSNAKLWNEVLASLKDRPASGSPFQLFLSKVEETFQCICCQELVFRPITTVCQHNVCKDCLDRSFRAQVFSCPACRYDLGRSYAMQVNQPLQTVLNQLFPGYGNGR	can specifically bind an ICB DNA sequence
